Here are results for 125 sequences from the supplement of paper PMC9112550, “Optimization of the antimicrobial peptide Bac7 by deep mutational scanning” (BMC Biology, 2022).

For this series, the system named is Escherichia coli TOP10. Briefly: shrunken log2 fold change of peptide-encoding DNA abundance (4.5 h post-induction vs induction); higher = less antimicrobial activity (less host growth inhibition). To be noted: time post-induction: 4.5 h; library: site-saturation at positions 5, 18, 19, 20.
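Note: peptides expressed intracellularly from a pBAD plasmid library in pooled LB shake-flask culture, induced with 0.3% L-arabinose, DNA abundance read by NGS, three biological replicates, DESeq2 with apeglm shrinkage.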

For the sequence RRIRDRPPRLPRPRPRPIPCPRP, the “shrunken log2 fold change” value is -0.0802.

Regarding RRIRNRPPRLPRPRPRPSADPRP, the “shrunken log2 fold change” value amounted to 0.212.

For the sequence RRIRGRPPRLPRPRPRPCMPPRP, the “shrunken log2 fold change” value is -0.152.

Consider RRIRARPPRLPRPRPRPQYHPRP, for which the “shrunken log2 fold change” value was -0.398.

Consider RRIRKRPPRLPRPRPRPENTPRP, for which the “shrunken log2 fold change” value was 0.44.

On to RRIRYRPPRLPRPRPRPQHIPRP, for which the “shrunken log2 fold change” value is -0.754.

Regarding RRIRTRPPRLPRPRPRPTCWPRP, the “shrunken log2 fold change” value was 0.00427.

For the sequence RRIRVRPPRLPRPRPRPNKKPRP, the “shrunken log2 fold change” value was -0.0801.

In the case of RRIRARPPRLPRPRPRPYCCPRP, the “shrunken log2 fold change” value is -0.181.

As to RRIRRRPPRLPRPRPRPLKNPRP, the “shrunken log2 fold change” value is 0.29.

For the sequence RRIRARPPRLPRPRPRPVKKPRP, the “shrunken log2 fold change” value came to 0.147.

As for RRIRWRPPRLPRPRPRPAVIPRP, the “shrunken log2 fold change” value was found to be 0.0266.

Consider RRIRIRPPRLPRPRPRPAKPPRP, for which the “shrunken log2 fold change” value was determined as 0.297.

Take RRIRGRPPRLPRPRPRPFNVPRP: the “shrunken log2 fold change” value is -0.101.

For the sequence RRIRARPPRLPRPRPRPTLEPRP, the “shrunken log2 fold change” value was 0.388.

As for RRIRDRPPRLPRPRPRPVCLPRP, the “shrunken log2 fold change” value turned out to be 0.345.

Turning to RRIRERPPRLPRPRPRPEFVPRP, the “shrunken log2 fold change” value was 0.137.

RRIRPRPPRLPRPRPRPHLVPRP: the “shrunken log2 fold change” value was -0.034.

As to RRIRVRPPRLPRPRPRPFKMPRP, the “shrunken log2 fold change” value is -0.398.

As for RRIRTRPPRLPRPRPRPFKKPRP, the “shrunken log2 fold change” value was -0.102.

On to RRIRGRPPRLPRPRPRPPPDPRP, for which the “shrunken log2 fold change” value came to 1.37.

Regarding RRIRDRPPRLPRPRPRPCSLPRP, the “shrunken log2 fold change” value was -0.0409.

As for RRIRGRPPRLPRPRPRPYFRPRP, the “shrunken log2 fold change” value was determined as 0.0786.

With RRIRMRPPRLPRPRPRPGAKPRP, the “shrunken log2 fold change” value was 1.48.

With RRIRKRPPRLPRPRPRPQIMPRP, the “shrunken log2 fold change” value is -0.103.

In the case of RRIRKRPPRLPRPRPRPVTIPRP, the “shrunken log2 fold change” value amounted to 0.0361.

RRIRWRPPRLPRPRPRPGRFPRP: the “shrunken log2 fold change” value was 0.152.

Regarding RRIRQRPPRLPRPRPRPRSFPRP, the “shrunken log2 fold change” value was -0.0281.

Consider RRIRMRPPRLPRPRPRPPLCPRP, for which the “shrunken log2 fold change” value turned out to be 1.72.

As for RRIRLRPPRLPRPRPRPHSVPRP, the “shrunken log2 fold change” value was -0.0683.

Regarding RRIRARPPRLPRPRPRPEWRPRP, the “shrunken log2 fold change” value stood at 0.37.

Consider RRIRTRPPRLPRPRPRPCVTPRP, for which the “shrunken log2 fold change” value is -0.208.

With RRIRGRPPRLPRPRPRPDQCPRP, the “shrunken log2 fold change” value was determined as 0.196.

Turning to RRIRGRPPRLPRPRPRPVQYPRP, the “shrunken log2 fold change” value is 0.118.

For RRIRKRPPRLPRPRPRPCLGPRP, the “shrunken log2 fold change” value was determined as 0.0457.

Turning to RRIRVRPPRLPRPRPRPDPIPRP, the “shrunken log2 fold change” value is -0.00485.

Turning to RRIRDRPPRLPRPRPRPPNHPRP, the “shrunken log2 fold change” value was -0.205.

In the case of RRIRFRPPRLPRPRPRPTTNPRP, the “shrunken log2 fold change” value is -0.2.

For RRIRFRPPRLPRPRPRPTQTPRP, the “shrunken log2 fold change” value is -0.199.

On to RRIRVRPPRLPRPRPRPWEIPRP, for which the “shrunken log2 fold change” value is -0.00992.

As for RRIRIRPPRLPRPRPRPHQFPRP, the “shrunken log2 fold change” value is -0.525.

Take RRIRTRPPRLPRPRPRPYGPPRP: the “shrunken log2 fold change” value is -0.406.

Consider RRIRVRPPRLPRPRPRPDQKPRP, for which the “shrunken log2 fold change” value was 0.002.

Regarding RRIRERPPRLPRPRPRPGNVPRP, the “shrunken log2 fold change” value was -0.197.

Take RRIRSRPPRLPRPRPRPSLSPRP: the “shrunken log2 fold change” value is -0.0859.

RRIRWRPPRLPRPRPRPHIGPRP: the “shrunken log2 fold change” value is -0.079.

For RRIRWRPPRLPRPRPRPANMPRP, the “shrunken log2 fold change” value was -0.0899.

Take RRIRLRPPRLPRPRPRPICKPRP: the “shrunken log2 fold change” value was -0.28.

Consider RRIRGRPPRLPRPRPRPQRCPRP, for which the “shrunken log2 fold change” value is 0.0883.

As to RRIRTRPPRLPRPRPRPFMFPRP, the “shrunken log2 fold change” value is -0.586.

As to RRIRKRPPRLPRPRPRPNFSPRP, the “shrunken log2 fold change” value was -0.084.

Turning to RRIRKRPPRLPRPRPRPGHPPRP, the “shrunken log2 fold change” value is 0.943.

For the sequence RRIRDRPPRLPRPRPRPPLEPRP, the “shrunken log2 fold change” value came out at 0.699.

For the sequence RRIRGRPPRLPRPRPRPYCRPRP, the “shrunken log2 fold change” value was -0.237.

Take RRIRLRPPRLPRPRPRPGTTPRP: the “shrunken log2 fold change” value is -0.221.

Regarding RRIRVRPPRLPRPRPRPNKAPRP, the “shrunken log2 fold change” value is 0.13.

As for RRIRVRPPRLPRPRPRPGVPPRP, the “shrunken log2 fold change” value is 0.0752.

Regarding RRIRWRPPRLPRPRPRPSWSPRP, the “shrunken log2 fold change” value worked out at 0.862.

For RRIRHRPPRLPRPRPRPVACPRP, the “shrunken log2 fold change” value came to 0.00664.

Turning to RRIRDRPPRLPRPRPRPIAEPRP, the “shrunken log2 fold change” value came out at 0.195.

As to RRIRCRPPRLPRPRPRPWPNPRP, the “shrunken log2 fold change” value was -0.279.

RRIRIRPPRLPRPRPRPNSNPRP: the “shrunken log2 fold change” value is -0.983.

With RRIRQRPPRLPRPRPRPVKVPRP, the “shrunken log2 fold change” value was -0.00987.

For RRIRKRPPRLPRPRPRPFTTPRP, the “shrunken log2 fold change” value was -0.243.

For the sequence RRIRLRPPRLPRPRPRPIYAPRP, the “shrunken log2 fold change” value came to 0.111.

In the case of RRIRDRPPRLPRPRPRPRGWPRP, the “shrunken log2 fold change” value was 1.35.

As for RRIRWRPPRLPRPRPRPWVLPRP, the “shrunken log2 fold change” value worked out at 0.287.

For RRIRKRPPRLPRPRPRPLPVPRP, the “shrunken log2 fold change” value came to 0.431.

For the sequence RRIRIRPPRLPRPRPRPTKKPRP, the “shrunken log2 fold change” value was 0.0727.

Turning to RRIRNRPPRLPRPRPRPSNKPRP, the “shrunken log2 fold change” value is -0.259.

On to RRIRYRPPRLPRPRPRPQGMPRP, for which the “shrunken log2 fold change” value was -0.0114.

For RRIRPRPPRLPRPRPRPHDNPRP, the “shrunken log2 fold change” value is -0.347.

Turning to RRIRQRPPRLPRPRPRPHWPPRP, the “shrunken log2 fold change” value is -0.0715.

Turning to RRIRCRPPRLPRPRPRPGDRPRP, the “shrunken log2 fold change” value amounted to 0.0429.

For RRIRDRPPRLPRPRPRPRKWPRP, the “shrunken log2 fold change” value was -0.0062.

On to RRIRSRPPRLPRPRPRPTWQPRP, for which the “shrunken log2 fold change” value was 0.0157.

Take RRIRARPPRLPRPRPRPHIMPRP: the “shrunken log2 fold change” value is -0.277.

As to RRIRYRPPRLPRPRPRPSSEPRP, the “shrunken log2 fold change” value was 0.0163.

For RRIRHRPPRLPRPRPRPSEVPRP, the “shrunken log2 fold change” value was -0.277.

In the case of RRIRCRPPRLPRPRPRPMMHPRP, the “shrunken log2 fold change” value is -0.175.

As for RRIRPRPPRLPRPRPRPHVCPRP, the “shrunken log2 fold change” value stood at 0.171.

On to RRIRGRPPRLPRPRPRPWERPRP, for which the “shrunken log2 fold change” value stood at 0.0531.

As for RRIRQRPPRLPRPRPRPQNDPRP, the “shrunken log2 fold change” value is 0.119.

Consider RRIRVRPPRLPRPRPRPEPWPRP, for which the “shrunken log2 fold change” value was found to be 0.128.

As for RRIRPRPPRLPRPRPRPMNTPRP, the “shrunken log2 fold change” value is -0.0416.

As for RRIRNRPPRLPRPRPRPCHYPRP, the “shrunken log2 fold change” value worked out at 0.00673.

For the sequence RRIRMRPPRLPRPRPRPMQFPRP, the “shrunken log2 fold change” value was determined as 0.167.

With RRIRFRPPRLPRPRPRPPRHPRP, the “shrunken log2 fold change” value came to 0.411.

Turning to RRIRCRPPRLPRPRPRPLHSPRP, the “shrunken log2 fold change” value was -0.383.

For the sequence RRIRRRPPRLPRPRPRPIYRPRP, the “shrunken log2 fold change” value is -0.273.

RRIRERPPRLPRPRPRPYEWPRP: the “shrunken log2 fold change” value is -0.00963.

Regarding RRIRARPPRLPRPRPRPAQQPRP, the “shrunken log2 fold change” value turned out to be 0.156.

Consider RRIRMRPPRLPRPRPRPSAAPRP, for which the “shrunken log2 fold change” value was 2.7.

With RRIRPRPPRLPRPRPRPQCCPRP, the “shrunken log2 fold change” value turned out to be 0.0723.

On to RRIRTRPPRLPRPRPRPKWHPRP, for which the “shrunken log2 fold change” value was -0.0752.

Turning to RRIRYRPPRLPRPRPRPMANPRP, the “shrunken log2 fold change” value was -0.223.

Take RRIRARPPRLPRPRPRPLPDPRP: the “shrunken log2 fold change” value stood at 1.07.

Take RRIRDRPPRLPRPRPRPCHTPRP: the “shrunken log2 fold change” value is -0.234.

With RRIRYRPPRLPRPRPRPRRGPRP, the “shrunken log2 fold change” value turned out to be 0.114.

For RRIRMRPPRLPRPRPRPFAIPRP, the “shrunken log2 fold change” value was -0.0351.

Consider RRIRNRPPRLPRPRPRPPLIPRP, for which the “shrunken log2 fold change” value is -0.193.

On to RRIRDRPPRLPRPRPRPILTPRP, for which the “shrunken log2 fold change” value was -0.0144.

Turning to RRIRWRPPRLPRPRPRPPVYPRP, the “shrunken log2 fold change” value was -0.0994.

For RRIRHRPPRLPRPRPRPSVLPRP, the “shrunken log2 fold change” value was -0.242.

As for RRIRHRPPRLPRPRPRPESMPRP, the “shrunken log2 fold change” value came to 0.0353.

For the sequence RRIRPRPPRLPRPRPRPTEFPRP, the “shrunken log2 fold change” value is -0.268.

Consider RRIRTRPPRLPRPRPRPQFVPRP, for which the “shrunken log2 fold change” value was -0.127.

RRIRNRPPRLPRPRPRPSIWPRP: the “shrunken log2 fold change” value is -0.474.

In the case of RRIRERPPRLPRPRPRPHLAPRP, the “shrunken log2 fold change” value is 0.101.

For the sequence RRIRTRPPRLPRPRPRPAEGPRP, the “shrunken log2 fold change” value came to 0.164.

As for RRIRPRPPRLPRPRPRPKQFPRP, the “shrunken log2 fold change” value was -0.313.

Consider RRIRNRPPRLPRPRPRPWNKPRP, for which the “shrunken log2 fold change” value was -0.184.

Take RRIRCRPPRLPRPRPRPKVKPRP: the “shrunken log2 fold change” value was -0.133.

As to RRIRDRPPRLPRPRPRPSWPPRP, the “shrunken log2 fold change” value turned out to be 0.399.

Turning to RRIRDRPPRLPRPRPRPMEVPRP, the “shrunken log2 fold change” value was 0.142.

As for RRIRDRPPRLPRPRPRPRAMPRP, the “shrunken log2 fold change” value was -0.0837.

For the sequence RRIRQRPPRLPRPRPRPDQFPRP, the “shrunken log2 fold change” value turned out to be 0.133.

For RRIRKRPPRLPRPRPRPRINPRP, the “shrunken log2 fold change” value is 0.0244.

As for RRIRVRPPRLPRPRPRPQPRPRP, the “shrunken log2 fold change” value was 0.429.

RRIRFRPPRLPRPRPRPAYEPRP: the “shrunken log2 fold change” value is 0.0737.

RRIRFRPPRLPRPRPRPAEKPRP: the “shrunken log2 fold change” value was -0.0885.

For the sequence RRIRERPPRLPRPRPRPTPLPRP, the “shrunken log2 fold change” value amounted to 0.0281.

In the case of RRIRARPPRLPRPRPRPAYFPRP, the “shrunken log2 fold change” value is 0.0133.

With RRIRKRPPRLPRPRPRPVCMPRP, the “shrunken log2 fold change” value turned out to be 0.0492.

RRIRERPPRLPRPRPRPPKSPRP: the “shrunken log2 fold change” value came out at 0.21.
